Some test systems named below: 72H11 IgG (human); 71F12GL-SFH (human); 71F12GL-SF (human).
Holding throughout (experiment): SPR
Common to all, as to details: Bead assay: PBS with 1% BSA, antibody 0.2 or 2 ug/ml, 1 h, 22 C; SPR conditions not in the material

Data set [1] relates to 71F12 GL (germline-reverted) (human).

Consider four sequences from publication PMC5703881.

The term Kd denotes a measure of binding affinity in units of concentration. With “TAATACGACTCACTATAGGG (double strand) [biotinylated 20-bp dsDNA (Fig. 4A)]”, in the data set on 72H11 IgG (human), the dissociation constant Kd turned out to be 400 nM.

TTTTT [5-mer T5] returned a fold reduction in affinity (fold lower affinity than 71F12) in data set [1] of 50.

With GGGGGGGGT [9-mer G8T], the fold reduction in affinity (fold lower affinity than for GGGGGGTTT) in the data set with 71F12GL-SFH (human) was determined as 150.

GGGGGGTTT [9-mer G6T3] gave a fold reduction in affinity (fold lower affinity than 71F12GL-SFH) in the data set on 71F12GL-SF (human) of 30.
